{
  "source": "paper PMC4987623",
  "about": "“The tetrameric MotA complex as the core of the flagellar motor stator from hyperthermophilic bacterium” (Scientific Reports, 2016)",
  "proteins": {"B1": {"name": "MotA from Aquifex aeolicus with N-terminal histidine tag (His-MotA^Aa) (natural protein, UniProt O67122 1-254, looked up)", "chain": "MDVGTIIGIIAAFLLILISILIGGSITAFINVPSIFIVVGGGMAAAMGAFPLKDFIRGVLAIKKAFLWKPPDLNDVIETIGEIASKVRKEGILALEGDIELYYQKDPLLGDMIRMLVDGIDINDIKATAEMALAQLDEKMSTEVAVWEKLADLFPAFGMIGTLIGLIQMLRNLNDPSALGPGMAVALITTLYGAILANAFAIPVANKLKKAKDMEVLVKTIYIEAIEKIQKGENPNVVKQEAAIMLGVELPEEV", "notes": "MotA, flagellar motor stator protein of Aquifex aeolicus; full-length motA gene cloned into pColdI; four transmembrane helices, cytoplasmic residues 54-149 and 205-254; Expressed from pColdI-motA^Aa without MotB; 28 kDa with the tag; source: E. coli BL21-CodonPlus(DE3)-RIPL, membrane fraction solubilized in detergent, purified (Ni-NTA agarose, gel filtration); not shown: His6, N-terminal, kept"}},
  "key": {"[1]": {"biological_target": "the molecule itself", "experiment": "cross-linking; about 0.5 mg/mL purified His-MotA in PN buffer (50 mM NaPO4 pH 7.0, 150 mM NaCl) with 0.1% (w/v) DM, 20 °C, 20 mM EDC for 0-120 min; SDS-PAGE, CBB staining and immunoblot"}, "[2]": {"biological_target": "the molecule itself", "experiment": "negative-stain electron microscopy, single particle 3D reconstruction; MotA complex from the 210 kDa gel filtration fraction, stained with 2% uranyl acetate; 2-fold rotational symmetry applied; 25 Å resolution"}, "[3]": {"biological_target": "the molecule itself", "experiment": "cross-linking; about 0.5 mg/mL purified His-MotA in PN buffer (50 mM NaPO4 pH 7.0, 150 mM NaCl) with 0.1% (w/v) DM, 20 °C, 0-5 mM BS3 for 5 min; SDS-PAGE, CBB staining and immunoblot"}},
  "data": [
    {"protein": "B1", "values": [
      {"measurement": "stoichiometry N", "setting": "[1]", "value": "≥ 4"},
      {"measurement": "stoichiometry N", "setting": "[2]", "value": 4},
      {"measurement": "stoichiometry N", "setting": "[3]", "value": 2}
    ]}
  ]
}
